# B1: IsdA: full length (excluding signal peptide and C-terminal sorting sequences) IsdA, amino acids 48-316, GST fusion expressed in E. coli (protein, listed as Staphylococcus aureus)
# chain: TEATNATNNQSTQVSQATSQPINFQVQKDGSSEKSHMDDYMQHPGKVIKQNNKYYFQTVLNNASFWKEYKFYNANNQELATTVVNDNKKADTRTINVAVEPGYKSLTTKVHIVVPQINYNHRYTTHLEFEKAIPTLADAAKPNNVKPVQPKPAQPKTPTEQTKPVQPKVEKVKPTVTTTSKVEDNHSTKVVSTDTTKDQTKTQTAHTVKTAQTAQEQNKVQTPVKDVATAKSESNNQAVSDNKSQQTNKVTKHNETPKQASKAKELPKT
# modifications: GST fusion
# Assay: Heme binding by native and mutant forms of GST-IsdA (electronic spectra, A407/A280)
# Settings: GST-IsdA fusion proteins as expressed and isolated from E. coli; heme scavenged from E. coli cytoplasm; room temperature
# Protocol: Wild type and point mutant proteins were purified as expressed from E. coli and relative heme binding was assessed based upon the ability of the proteins, all expressed in an equivalent fashion, to scavenge and retain association with heme derived from the cytoplasm of E. coli Proteins were adjusted to an equivalent concentration and electronic spectra were recorded using a Cary 500 spectrophotometer (Varian Inc.) with a 1 cm path length and 1 mL quartz cuvettes. All recordings were taken at room temperature.
molecule,measurement,value
B1,A407/A280 ratio,0.629

# — US20080050361A1, “STAP[…] […] ANTI-INFECTIVES” (priority 2004, published 2008)
